# Publication PMC10966351
# Target: BlaC P107T (Mycobacterium tuberculosis)
# Test: crystal structure; sitting-drop vapor diffusion at 20°C, protein 10 mg/mL in 100 mM sodium phosphate buffer pH 6.4; four molecules in the asymmetric unit
substance,measurement,value
BlaC P107T (enzyme),stoichiometry N,2
